Source: US20130224187A1 (Alexion, published 2013)

T1: human C5a (human, UniProt P01031 678-751)
T1 construct: also called hC5a; free human C5a
T1 sequence: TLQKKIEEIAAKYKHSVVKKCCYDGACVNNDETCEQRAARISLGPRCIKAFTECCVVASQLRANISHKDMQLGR

T2: human C4a (human, UniProt P0C0L4 680-756)
T2 construct: domain: C4a
T2 sequence (looked up): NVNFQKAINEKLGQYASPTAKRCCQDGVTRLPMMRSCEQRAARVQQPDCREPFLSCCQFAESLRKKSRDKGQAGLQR


How the values were obtained:
human C5a [1] = biological target: T1, human C5a; assay: SPR (Biacore); antibody captured by anti-human Fc on CM5 chip, human C5a 0.6-5.9 nM as analyte; 1:1 Langmuir fit
Protocol: (§1) See, e.g., Karlsson and Larsson (2004) Methods Mol Biol 248:389-415. […] The surface was regenerated with 20 mM HCl, 0.02% P20 after each cycle to remove bound antibody and antigen. The data was evaluated using Biacore BlAevaluation software using a 1:1 Langmuir Model Fit (Rmax:Global Fit; R1:Local Fit). Kinetics information such as (kₐ: Association Rate constant), (kd:Dissociation Rate constant) and KD (Equilibrium Dissociation constant) was obtained from the fit. These experiments were for screening purposes with a minimal number of analyte concentrations (3 to 4) with 1 duplicate.

human C5a [2] = biological target: T1, human C5a; assay: SPR (Biacore); summary sentence of Table 4
Protocol: as §1

human C5a [3] = biological target: T1, human C5a; assay: ELISA
human C3a = biological target: T3, human C3a (human, UniProt P01024 672-748); assay: Octet analysis
T3 construct: domain: C3a

human C4a = biological target: T2, human C4a; assay: Octet analysis
human full-length C5 = biological target: T4, human full-length C5 (human, UniProt P01031 19-673; P01031 678-1676); assay: Octet analysis
T4 construct: mature; also called uncleaved human C5; native, fully-folded human C5
T4 sequence (P01031 19-673 limits assumed, chain 1 of 2): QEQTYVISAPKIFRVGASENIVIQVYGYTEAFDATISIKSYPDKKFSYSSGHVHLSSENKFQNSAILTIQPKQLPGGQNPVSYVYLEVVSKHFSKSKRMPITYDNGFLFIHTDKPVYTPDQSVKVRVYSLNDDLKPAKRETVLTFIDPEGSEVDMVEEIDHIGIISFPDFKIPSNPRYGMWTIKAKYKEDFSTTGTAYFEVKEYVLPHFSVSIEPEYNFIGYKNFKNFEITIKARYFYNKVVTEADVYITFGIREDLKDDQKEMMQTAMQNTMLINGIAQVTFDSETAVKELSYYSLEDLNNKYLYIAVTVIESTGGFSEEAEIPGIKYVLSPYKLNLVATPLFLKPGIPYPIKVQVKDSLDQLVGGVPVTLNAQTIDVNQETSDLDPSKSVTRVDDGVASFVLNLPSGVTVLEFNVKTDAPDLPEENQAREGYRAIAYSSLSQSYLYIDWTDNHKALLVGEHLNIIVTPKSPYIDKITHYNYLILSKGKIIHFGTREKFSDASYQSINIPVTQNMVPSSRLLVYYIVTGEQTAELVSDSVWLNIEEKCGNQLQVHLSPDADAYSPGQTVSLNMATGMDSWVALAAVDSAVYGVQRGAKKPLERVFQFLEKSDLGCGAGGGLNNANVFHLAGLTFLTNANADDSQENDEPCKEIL
T4 sequence (P01031 678-1676 limits assumed, chain 2 of 2): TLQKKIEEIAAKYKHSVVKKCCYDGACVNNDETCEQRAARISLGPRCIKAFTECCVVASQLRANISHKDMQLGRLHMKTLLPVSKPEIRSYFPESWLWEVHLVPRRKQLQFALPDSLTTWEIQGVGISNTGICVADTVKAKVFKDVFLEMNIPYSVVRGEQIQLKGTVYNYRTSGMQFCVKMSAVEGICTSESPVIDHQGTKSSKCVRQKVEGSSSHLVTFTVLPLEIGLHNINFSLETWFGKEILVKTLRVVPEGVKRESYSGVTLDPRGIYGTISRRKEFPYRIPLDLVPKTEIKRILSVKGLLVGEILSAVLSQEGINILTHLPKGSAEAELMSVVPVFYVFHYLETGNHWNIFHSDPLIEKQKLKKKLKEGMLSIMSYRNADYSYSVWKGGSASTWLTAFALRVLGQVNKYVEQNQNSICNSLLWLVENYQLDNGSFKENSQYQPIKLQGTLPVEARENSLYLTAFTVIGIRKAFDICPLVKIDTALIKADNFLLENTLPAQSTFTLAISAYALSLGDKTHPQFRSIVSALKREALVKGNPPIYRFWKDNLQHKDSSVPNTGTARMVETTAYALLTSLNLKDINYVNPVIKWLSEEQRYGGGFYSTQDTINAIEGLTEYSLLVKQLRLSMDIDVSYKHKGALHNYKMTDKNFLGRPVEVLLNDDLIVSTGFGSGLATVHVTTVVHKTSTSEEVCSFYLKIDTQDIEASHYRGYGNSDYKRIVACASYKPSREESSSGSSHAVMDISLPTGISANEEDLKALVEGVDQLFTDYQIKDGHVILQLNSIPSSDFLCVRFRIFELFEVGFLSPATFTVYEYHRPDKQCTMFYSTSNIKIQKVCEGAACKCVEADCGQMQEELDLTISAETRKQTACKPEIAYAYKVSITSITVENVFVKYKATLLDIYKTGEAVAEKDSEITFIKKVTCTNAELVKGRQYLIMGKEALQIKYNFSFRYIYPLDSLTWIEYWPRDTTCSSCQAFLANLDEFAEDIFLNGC

T3 sequence (P01024 672-748 limits assumed): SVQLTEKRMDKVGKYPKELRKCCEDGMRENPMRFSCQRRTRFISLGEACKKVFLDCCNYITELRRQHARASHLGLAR

Row | Binder | Kd (human C5a [1]) | koff (human C5a [1]) | kon (human C5a [1]) | Kd (human C5a [2]) | binding result (human C5a [3]) | binding result (human C3a) | binding result (human C4a) | binding result (human full-length C5)
1 | BNJ367 (antibody, human IgG2, kappa, Humanized full length IgG) heavy: QVQLVQSGAEVKKPGASVKVSCKASGYTFTDYSMDWVRQAPGQGLEWMGAINPNSGGTNYNQKFKDRVTMTRDTSTSTVYMELSSLRSEDTAVYYCARSGSYDGYYAMDYWGQGTTVTVSSASTKGPSVFPLAPCSRSTSESTAALGCLVKDYFPEPVTVSWNSGALTSGVHTFPAVLQSSGLYSLSSVVTVPSSNFGTQTYTCNVDHKPSNTKVDKTVERKCCVECPPCPAPPVAGPSVFLFPPKPKDTLMISRTPEVTCVVVDVSQEDPEVQFNWYVDGVEVHNAKTKPREEQFNSTYRVVSVLTVLHQDWLNGKEYKCKVSNKGLPSSIEKTISKAKGQPREPQVYTLPPSQEEMTKNQVSLTCLVKGFYPSDIAVEWESNGQPENNYKTTPPVLDSDGSFFLYSRLTVDKSRWQEGNVFSCSVMHEALHNHYTQKSLSLSLGK light: DIVMTQSPDSLAVSLGERATINCRASESVDSYGNSFMHWYQQKPGQPPKLLIYRASNLESGVPDRFSGSGSGTDFTLTISSLQAEDVAVYYCQQSNEDPYTFGGGTKVEIKRTVAAPSVFIFPPSDEQLKSGTASVVCLLNNFYPREAKVQWKVDNALQSGNSQESVTEQDSKDSTYSLSSTLTLSKADYEKHKVYACEVTHQGLSSPVTKSFNRGEC | 0.198 nM | 0.000778 s⁻¹ | 3.94e+06 M⁻¹ s⁻¹ | < 1 nM | – | – | – | –
2 | BNJ364 (antibody, human IgG2, kappa, Humanized full length IgG) heavy: QVQLVQSGAEVKKPGASVKVSCKASGYTFTDYSMDWVRQAPGQGLEWMGAINPNSGGTNYNQKFKDRVTMTRDTSTSTVYMELSSLRSEDTAVYYCARSGSYDGYYAMDYWGQGTTVTVSSASTKGPSVFPLAPCSRSTSESTAALGCLVKDYFPEPVTVSWNSGALTSGVHTFPAVLQSSGLYSLSSVVTVPSSNFGTQTYTCNVDHKPSNTKVDKTVERKCCVECPPCPAPPVAGPSVFLFPPKPKDTLMISRTPEVTCVVVDVSHEDPEVQFNWYVDGVEVHNAKTKPREEQFNSTFRVVSVLTVVHQDWLNGKEYKCKVSNKGLPAPIEKTISKTKGQPREPQVYTLPPSREEMTKNQVSLTCLVKGFYPSDISVEWESNGQPENNYKTTPPMLDSDGSFFLYSKLTVDKSRWQQGNVFSCSVMHEALHNHYTQKSLSLSPGK light: DIVMTQSPDSLAVSLGERATINCRASESVDSYGNSFMHWYQQKPGQPPKLLIYRASNLESGVPDRFSGSGSGTDFTLTISSLQAEDVAVYYCQQSNEDPYTFGGGTKVEIKRTVAAPSVFIFPPSDEQLKSGTASVVCLLNNFYPREAKVQWKVDNALQSGNSQESVTEQDSKDSTYSLSSTLTLSKADYEKHKVYACEVTHQGLSSPVTKSFNRGEC | 0.644 nM | 0.000638 s⁻¹ | 991000 M⁻¹ s⁻¹ | < 1 nM | – | – | – | –
3 | BNJ371 (antibody, human IgG2, kappa, V domains shown, Humanized full length IgG; Light chain CDR2 is humanized) VH: QVQLVQSGAEVKKPGASVKVSCKASGYTFTDYSMDWVRQAPGQGLEWMGAINPNSGGTNYNQKFKDRVTMTRDTSTSTVYMELSSLRSEDTAVYYCARSGSYDGYYAMDYWGQGTTVTVSS VL: DIVMTQSPDSLAVSLGERATINCRASESVDSYGNSFMHWYQQKPGQPPKLLIYWASTRESGVPDRFSGSGSGTDFTLTISSLQAEDVAVYYCQQSNEDPYTFGGGTKVEIKR | 1.18 nM | 0.00282 s⁻¹ | 2.38e+06 M⁻¹ s⁻¹ | < 1.2 nM | – | – | – | –
4 | BNJ378 (antibody, human IgG2, kappa, V domains shown, Humanized full length IgG) VH: QVQLVQSGAEVKKPGASVKVSCKASGYTFTDYSMDWVRQAPGQGLEWMGAINPNSGGTNYNQKFKDRVTMTRDTSTSTVYMELSSLRSEDTAVYYCARSGSYDGYYAMDYWGQGTTVTVSS VL: DIQMTQSPSSLSASVGDRVTITCRASESVDSYGNSFMHWYQQKPGKAPKLLIYRASNLESGVPSRFSGSGSGTDFTLTISSLQPEDFATYYCQQSNEDPYTFGGGTKVEIKR | 0.298 nM | 0.000576 s⁻¹ | 1.93e+06 M⁻¹ s⁻¹ | < 1 nM | – | – | – | –
5 | BNJ366 (antibody, human IgG2, kappa, Humanized full length IgG) heavy: QVQLVQSGAEVKKPGASVKVSCKASGYTFTDYSMDWVRQAPGQGLEWMGAIHLNTGYTNYNQKFKGRVTMTRDTSTSTVYMELSSLRSEDTAVYYCARGFYDGYSPMDYWGQGTTVTVSSASTKGPSVFPLAPCSRSTSESTAALGCLVKDYFPEPVTVSWNSGALTSGVHTFPAVLQSSGLYSLSSVVTVPSSNFGTQTYTCNVDHKPSNTKVDKTVERKCCVECPPCPAPPVAGPSVFLFPPKPKDTLMISRTPEVTCVVVDVSHEDPEVQFNWYVDGVEVHNAKTKPREEQFNSTFRVVSVLTVVHQDWLNGKEYKCKVSNKGLPAPIEKTISKTKGQPREPQVYTLPPSREEMTKNQVSLTCLVKGFYPSDISVEWESNGQPENNYKTTPPMLDSDGSFFLYSKLTVDKSRWQQGNVFSCSVMHEALHNHYTQKSLSLSPGK light: DIVMTQSPDSLAVSLGERATINCRASESVDSYGNSFMHWYQQKPGQPPKLLIYRASNLESGVPDRFSGSGSGTDFTLTISSLQAEDVAVYYCQQSNEDPYTFGGGTKVEIKRTVAAPSVFIFPPSDEQLKSGTASVVCLLNNFYPREAKVQWKVDNALQSGNSQESVTEQDSKDSTYSLSSTLTLSKADYEKHKVYACEVTHQGLSSPVTKSFNRGEC | 0.15 nM | 0.000158 s⁻¹ | 1.05e+06 M⁻¹ s⁻¹ | < 1 nM | – | – | – | –
6 | 5an052 (antibody, V domains shown, Murine) VH: EVQLQQSGPELVKPGASVRISCKASGYTFNDYYYMNWVKQSHGKSLEWIGYIFPKTGGTHYNQRFKGKATLTVDKSSSTAYMELRSLTSEDSAVYYCASGPFAYWGQGTLVTVSA VL: QIVLTQSPAIMSASPGEKVTLTCSASSSVSSSYLYWYQQKPGSSPKLWIYSTSNLASGVPARFSGSGSGTSYSLTISTVEAEDAASYFCHQWSSYPPTFGGGTKLEIKR | – | – | – | – | binds | – | – | –
7 | 5an055 (antibody, V domains shown, Murine) VH: EVQLQQSGPELVKPGASVKISCKASGYTFSDYYYMNWVKKSHGKSLEWIGYIFPKTGGTNYNQRFKGKATLTVDKSSSTAYMELRSLTSEDSAVYYCASGPFAYWGQGTLVTVSA VL: EIVLTQSPAIMSASPGEKVTLTCSASSSVSSSYLYWYQQKPGSSPKLWIYSTSNLASGVPARFSGSGSGTSYSLTISSMEAEDAASYFCHQWSSYPPTFGGGTKLEIKR | – | – | – | – | binds | – | – | –
8 | 5an183 (antibody, V domains shown, Murine) VH: EVQLQQPGSVLVRPGATVKLSCKASGFTFTSSWMHWAKQRPGQGLEWIGEIHTSGHTNYNEKFKGKATLTLDTSSSTAYVDISSLTSEDSAVYYCARGGLRRGYAMDYWGQGTSVTVSS VL: DIVLTQSPASLAVSLGQRATISCRASESVDSYGNSFMHWYQQKPGQPPKLLIYRASNLESGIPARFSGSGSRTDFTLTINPVEADDVATYYCQQSNEDPLTFGAGTKLELKR | – | – | – | – | binds | – | – | –
9 | BNJ347 (antibody, V domains shown, also called BNJ347 humanized anti-C5a antibody) VH: QVQLVQSGAEVKKPGASVKVSCKASGYTFTDYSMDWVRQASGKGLEWMGAIHLNTGYTNYNQKFKGRVTITADESTSTAYMELSSLRSEDTAVYYCARGFYDGYSPMDYWGQGTTVTVSS VL: DIVMTQSPDSLAVSLGERATINCRASESVDSYGNSFMHWYQQKPGQPPKLLIYRASNLESGVPDRFSGSGSGTDFTLTISSLQAEDVAVYYCQQSNEDPYTFGGGTKVEIKR | – | – | – | – | – | no binding | no binding | no binding
10 | BNJ345 (antibody, V domains shown, also called BNJ345 humanized anti-C5a antibody) VH: QVQLVQSGSELKKPGASVKVSCKASGYTFTDYSMDWVRQAPGQGLEWMGAIHLNTGYTNYNQKFKGRVTITADESTSTAYMELSSLRSEDTAVYYCARGFYDGYSPMDYWGQGTTVTVSS VL: DIVMTQSPDSLAVSLGERATINCRASESVDSYGNSFMHWYQQKPGQPPKLLIYRASNLESGVPDRFSGSGSGTDFTLTISSLQAEDVAVYYCQQSNEDPYTFGGGTKVEIKR | – | – | – | – | – | no binding | no binding | no binding
11 | BNJ346 (antibody, V domains shown, also called BNJ346 humanized anti-C5a antibody) VH: QVQLVQSGAEVKKPGASVKVSCKASGYTFTDYSMDWVRQAPGQGLEWVGAIHLNTGYTNYNQKFKGRVTITADESTSTAYMELSSLRSEDTAVYYCARGFYDGYSPMDYWGQGTTVTVSS VL: DIVMTQSPDSLAVSLGERATINCRASESVDSYGNSFMHWYQQKPGQPPKLLIYRASNLESGVPDRFSGSGSGTDFTLTISSLQAEDVAVYYCQQSNEDPYTFGGGTKVEIKR | – | – | – | – | – | no binding | no binding | no binding
12 | BNJ354 (antibody, V domains shown, also called BNJ354 humanized anti-C5a antibody) VH: QVQLVQSGAEVKKPGASVKVSCKASGYTFTDYSMDWVRQASGKGLEWMGAIHLNTGYTNYNQKFKGRVTMTRDTSTSTVYMELSSLRSEDTAVYYCARGFYDGYSPMDYWGQGTTVTVSS VL: DIVMTQSPDSLAVSLGERATINCRASESVDSYGNSFMHWYQQKPGQPPKLLIYRASNLESGVPDRFSGSGSGTDFTLTISSLQAEDVAVYYCQQSNEDPYTFGGGTKVEIKR | – | – | – | – | – | no binding | no binding | no binding
13 | BNJ350 (antibody, V domains shown, also called BNJ350 humanized anti-C5a antibody) VH: QVQLVQSGAEVKKPGASVKVSCKASGYTFTDYSMDWVRQAPGQGLEWVGAINPNSGGTNYSQKFKDRVTITADESTSTAYMELSSLRSEDTAVYYCARSGSYDGYYAMDYWGQGTTVTVSS VL: DIVMTQSPDSLAVSLGERATINCRASESVDSYGNSFMHWYQQKPGQPPKLLIYRASNLESGVPDRFSGSGSGTDFTLTISSLQAEDVAVYYCQQSNEDPYTFGGGTKVEIKR | – | – | – | – | – | no binding | no binding | no binding
